Laboratory results taken from patent US6100032, “Human Smad3 and Smad4 are sequence-specific transcription activators” (Johns Hopkins University).

Key:
[1] = molecular target: GST-Smad3/MH1 (Homo sapiens, UniProt P84022 P84022:1-200); test: EMSA; bound to same extent as longer selected-clone probes; poly(dI-dC), 2% NP-40; conditions: tags: GST N-terminal (pGEX2TK, Pharmacia); label: 32P
Protocol: (§1) (FIG. 2B) The ^32P-labeled SBE probe was incubated with 0.6 ug of a fusion protein containing either the MH1 domain of Smad4 (lane 1) or 0.4–1.6 ug of a fusion protein containing FL Smad4 (lanes 2–5).
(§2) DNA-binding assays were performed essentially as described except that poly (dI-dC), 6 ug/ml, was used as the only competitor and 2% NP-40 was included in the reaction mix. For binding to PCR products derived from clones (e.g., FIG. 1), 1.0–0.5 ug protein […] and 50 ng of DNA end-labeled to 2×10^6 dpm/ug, was used. For binding to oligonucleotides, 0.3–0.5 ug of protein (~0.4 uM final concentration) and 0.5 ng of DNA end-labeled to 2×10^8 dpm/ug, was used. Specificity of binding was checked by competition with unlabeled SBE oligonucleotides and lack of competition with irrelevant oligonucleotides. Quantitation of binding was performed using an Instant Imager (Packard).

[2] = molecular target: GST-Smad4/MH1 (Homo sapiens, UniProt Q13485 Q13485:1-276); test: as above; conditions: tags: GST N-terminal (pGEX2TK, Pharmacia); label: 32P
Protocol: as §1, §2

[3] = molecular target: T1, GST-Smad2/MH1 (Homo sapiens, UniProt Q15796 Q15796:1-242); test: EMSA; did not bind the palindrome (data not shown); exact probe not stated; conditions: tags: GST N-terminal (pGEX2TK, Pharmacia); label: 32P
[4] = molecular target: His6-Smad4 full length (Homo sapiens, UniProt Q13485 Q13485:1-552); test: EMSA; full-length Smad4; conditions: tags: His6 (pET33b, Novagen); label: 32P
Protocol: as §1, §2

[5] = molecular target: GST-Smad4/FL (Homo sapiens, UniProt Q13485 Q13485:1-552); test: EMSA; full-length Smad4; conditions: tags: GST N-terminal (pGEX2TK, Pharmacia); label: 32P
Protocol: as §1, §2

[6] = molecular target: Smad4 (non-fusion) (Homo sapiens, UniProt Q13485 Q13485:1-552); test: EMSA; data not shown; conditions: tags: none; rabbit reticulocyte lysate; label: 32P
[7] = molecular target: T1, GST-Smad2/MH1; test: EMSA; data not shown; conditions: tags: GST N-terminal (pGEX2TK, Pharmacia); label: 32P
Protocol: To evaluate whether the analogous domain of human Smad proteins could bind DNA, GST fusion proteins containing the MH1 domains of Smads 2, 3, and 4 were constructed and expressed in $E. coli$. Electrophoresis mobility shift assays (EMSA) were performed using the purified proteins and labeled oligonucleotides containing the optimal sequence from Vg, essentially as described by Kim et al ). […] However, the binding was relatively inefficient, typically resulting in shifts of less than 5% of the input Vg probe. Several experimental manipulations were employed to increase the efficiency of binding (such as variations of cation, salt concentration, competitor, and other components of the binding buffer) without success.
as §2, with “Specificity of binding was checked by competition with unlabeled SBE oligonucleotides and lack of competition with irrelevant oligonucleotides.” left out

T1 sequence (Q15796 1-242, one chain of several): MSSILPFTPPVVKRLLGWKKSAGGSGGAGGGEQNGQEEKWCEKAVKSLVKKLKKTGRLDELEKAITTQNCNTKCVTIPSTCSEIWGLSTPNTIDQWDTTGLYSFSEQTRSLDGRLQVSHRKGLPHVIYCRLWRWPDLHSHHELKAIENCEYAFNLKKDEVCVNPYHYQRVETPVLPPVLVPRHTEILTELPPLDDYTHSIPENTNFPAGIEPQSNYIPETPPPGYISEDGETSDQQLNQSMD
Sequence of GST-Smad4/MH1 (Q13485 1-276, one chain of several): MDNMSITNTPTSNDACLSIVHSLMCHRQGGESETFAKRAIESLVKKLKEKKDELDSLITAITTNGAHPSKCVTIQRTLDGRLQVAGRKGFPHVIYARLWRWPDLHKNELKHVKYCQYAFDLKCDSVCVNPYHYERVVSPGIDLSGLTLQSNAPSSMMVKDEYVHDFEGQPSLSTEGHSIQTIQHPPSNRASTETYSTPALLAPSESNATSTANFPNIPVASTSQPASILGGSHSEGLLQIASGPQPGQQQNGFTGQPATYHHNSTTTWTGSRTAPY
Sequence of GST-Smad4/FL (Q13485 whole entry, one chain of several): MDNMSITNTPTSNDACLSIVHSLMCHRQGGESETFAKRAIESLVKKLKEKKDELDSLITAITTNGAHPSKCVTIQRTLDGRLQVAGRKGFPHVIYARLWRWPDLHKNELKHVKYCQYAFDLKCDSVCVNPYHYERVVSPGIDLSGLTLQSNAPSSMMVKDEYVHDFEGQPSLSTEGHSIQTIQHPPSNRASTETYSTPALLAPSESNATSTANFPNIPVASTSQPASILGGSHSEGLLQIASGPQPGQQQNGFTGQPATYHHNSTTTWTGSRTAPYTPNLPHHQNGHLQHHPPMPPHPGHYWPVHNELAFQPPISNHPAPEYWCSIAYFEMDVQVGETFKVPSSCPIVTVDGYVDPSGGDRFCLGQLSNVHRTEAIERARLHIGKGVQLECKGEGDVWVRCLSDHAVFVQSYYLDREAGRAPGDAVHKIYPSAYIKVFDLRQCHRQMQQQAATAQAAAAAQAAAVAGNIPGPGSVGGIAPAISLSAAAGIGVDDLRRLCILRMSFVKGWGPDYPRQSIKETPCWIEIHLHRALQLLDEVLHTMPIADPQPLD
Sequence of Smad4 (non-fusion) (Q13485 whole entry, the tested form may be a part, one chain of several): as the sequence (Q13485 whole entry, one chain of several) above
Sequence of His6-Smad4 full length (Q13485 whole entry, one chain of several): as above
Sequence of GST-Smad3/MH1 (P84022 1-200, one chain of several): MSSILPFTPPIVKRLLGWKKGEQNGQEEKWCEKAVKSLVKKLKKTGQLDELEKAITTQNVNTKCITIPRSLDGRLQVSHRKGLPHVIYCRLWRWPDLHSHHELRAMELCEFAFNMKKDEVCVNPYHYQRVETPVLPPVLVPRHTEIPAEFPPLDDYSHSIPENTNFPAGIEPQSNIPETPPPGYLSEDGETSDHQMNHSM

B1: SBE probe (26 bp) (dsDNA)
DNA 1: GGAGTATGTCTAGACTGACAATGTAC
DNA 2: GTACATTGTCAGTCTAGACATACTCC
[1]
  binding result: binds
[2]
  binding result: binds
[3]
  binding result: no binding
[4]
  binding result: binds
[5]
  binding result: binds
[6]
  binding result: binds

B2: Vg probe (dsDNA)
DNA 1: TTTGTGCTTGGCTGCCGTCGCGATTCGACAACTTTGG
DNA 2: CCAAAGTTGTCGAATCGCGACGGCAGCCAAGCACAAA
[7]
  binding result: no binding
